Target: microtubules of Xenopus S3 cells stably expressing EGFP-α-tubulin (Xenopus laevis (endogenous in S3 cells); cDNA of the EGFP-tagged copy not stated | Xenopus laevis (endogenous in S3 cells))
Test: fluorescence molecule counting on microtubules in cells

B1: mCherryFP-TgDCX (full-length wild-type TgDCX, mCherryFP at the N-terminus) (natural protein)
chain: MACGIPWKLARRDELMATRQAERPGEYFPPPYPPCPPTVVTPLRTSAYDFPEATFVTRPCLPAKKATGHKNVFERLTDTAYYTGSHRERFDEFGNGRGIAGREYLYAYDGLTESPSRCHEVYSSVIKRPRKPVVTPGTLGIQRFGVQIPAPRLMWLYRNGDKHDDGTPFFVRPYIKSMESLYQQITKEITPIAGPVRRIFDQNFRVITDLDDIVDGAKYLCTSGEPPAAYDRLEKFLSEWVIQKSQTKVPSQFFVV
Q: How did the DCX molecules per micron (short, smoothly curved microtubule arcs) (molecules per micron) turn out when B1 was run?
A: 4850

Q: What about the TgDCX molecules per micron of fiber length ("flexible" microtubules) (molecules per micron) of the same binder?
A: 1460

Q: And the stoichiometry N (TgDCX molecules per tubulin dimer)?
A: 0.9
